Tests used:
[1] = target: Human neutrophil-derived myeloperoxidase (human) (UniProt P05164); experiment: mass photometry
[2] = target: Human neutrophil-derived myeloperoxidase (human) (UniProt P05164); experiment: native MS

Kd [1]: 0.05 nM
percent diprotomer (ααββ) [1]: 93%
percent monoprotomer (αβ) [1]: 7%
stoichiometry N [1]: 2
stoichiometry N [2]: 2
Substance: Human neutrophil-derived myeloperoxidase (from UniProt P05164 279-745; P05164 279-745) (enzyme)

— article doi:10.1101/2020.07.24.219956
